Reference: patent publication US10563171B2, “Method for inducing differentiation of pluripotent stem cells into germ cells” (Kyoto University, priority 2015, dated 2020)

Key:
[1] = tested on: BTAG 585B1-868 hiPSCs; test: Induction of iMeLCs from hiPSCs having induction capacity into BTAG positive cells (FACS of BTAG(+) cells); format: cell-based, human; conditions: added during induction of iMeLC; FIG. 10D, 10E
Method: (§1) Initial mesoderm-like cells (iMeLCs) were induced by seeding hiPSCs maintained in StemFit™ in a 12 well plate coated with human plasma fibronectin (Millipore, FC010) at 1.0-2.0×10^5 cells per well in GK15 medium [GMEM containing 15% KSR, 0.1 mM NEAA, 2 mM L-glutamine, 1 mM sodium pyruvate and 0.1 mM 2-mercaptoethanol (Life Technologies)] containing 50 ng/ml activin A, 3 μM CHIR99021 and 10 μM ROCK inhibitor (Y-27632; Wako Pure Chemical Industries). The hiPSCs were induced by seeding in a low-cell-binding V-bottom 96 wellplate (Thermo, 81100574) at 3.0×10^3 cells per well in GK15 added with 1000 U/ml LlF (Millipore, #LIF1005), 200 ng/ml BMP 4,100 ng/ml SCF (R&D Systems, 455-MC), 50 ng/ml EGF (R&D Systems, 236-EG), and 10 μM ROCK inhibitor. For investigation of conditions and induction of iMeLCs or hPGCLC, PD173074 (StemGent, #04-0008) or LDN193189 (StemGent, #04-0074) was respectively added. Other than the above, WNT3A (R&D Systems, 5036-WN) was used instead of CHIR99021, and BMP2 (R&D Systems, 355-BM), BMP7 (R&D Systems, 354-BP), or BMP8A (R&D Systems, 1073-BP) was used instead of BMP4.
(§2) Floating aggregates containing hPGCLCs were separated by treating with 0.05% Trypsin-EDTA/PBS at 37° C. for 10 min. […] The collected cells were suspended in FACS buffer (0.1% BSA in PBS) and analyzed by a flow cytometer (ARIA III; BD Biosciences). […]

[2] = tested on: iMeLCs; test: Induction of BTAG positive cells (hPGCLCs) from iMeLCs in floating aggregates; format: cell-based, human; conditions: combination of BMP4, LIF, SCF and EGF changed; FIG. 11A-D
Method: as §1, §2

B1: BMP4: bone morphogenetic 4 (protein, UniProt P12644 293-408, looked up)
Bone morphogenetic protein 4: SPKHHSQRARKKNKNCRRHSLYVDFSDVGWNDWIVAPPGYQAFYCHGDCPFPLADHLNSTNHAIVQTLVNSVNSSIPKACCVPTELSAISMLYLDEYDKVVLKNYQEMVVEGCGCR
With B1 the “effect of signaling on iMeLCs induction” value [1] was “acts negatively” and the “role in induction of BTAG positive cells from iMeLCs” value [2] was “essential”.
